Laboratory results: PMC5102827 (Oncogene, 2016)

Experiments:
[1] = target: recombinant NOTCH3 protein (Homo sapiens, UniProt Q9UM47); experiment: SPR
[2] = target: NOTCH3 on the surface of cells expressing NOTCH3 (Homo sapiens, UniProt Q9UM47); experiment: flow cytometry on cells

Kd [1]: 0.6 nM | EC50 [2]: 0.14 nM
B1: MOR20358 anti-NOTCH3 NRR antibody (antibody, V domains shown)
VH: QVQLVQSGAEVKKPGSSVKVSCKASGGTFRTYAMHWVRQAPGQGLEWMGGIVPYHGITDYAQKFQGRVTITADESTSTAYMELSSLRSEDTAVYYCARDDYSTYAFAYWGQGTLVTVSS
VL: DIQMTQSPSSLSASVGDRVTITCRASQSIASYLAWYQQKPGKAPKLLIYDASNLQSGVPSRFSGSGSGTDFTLTISSLQPEDFATYYCQQAYKTPYTFGQGTKVEIK
